Test results: PMC2753885 (Biochemistry, 2009)
Where two headings read alike, the source gives them in different places.

T1: SSK1 response regulator (receiver) domain, SSK1-R2 (S. cerevisiae, UniProt Q07084 495-712)
T1 sequence (looked up): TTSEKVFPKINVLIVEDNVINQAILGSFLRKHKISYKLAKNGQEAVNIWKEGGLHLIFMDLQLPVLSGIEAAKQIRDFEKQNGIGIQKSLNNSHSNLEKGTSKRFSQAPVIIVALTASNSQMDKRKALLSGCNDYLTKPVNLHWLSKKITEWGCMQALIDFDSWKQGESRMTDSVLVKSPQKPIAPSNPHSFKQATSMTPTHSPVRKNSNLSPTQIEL

T2: YPD1, histidine-containing phosphotransfer (HPt) protein (S. cerevisiae, UniProt Q07688 1-167)
T2 sequence (looked up): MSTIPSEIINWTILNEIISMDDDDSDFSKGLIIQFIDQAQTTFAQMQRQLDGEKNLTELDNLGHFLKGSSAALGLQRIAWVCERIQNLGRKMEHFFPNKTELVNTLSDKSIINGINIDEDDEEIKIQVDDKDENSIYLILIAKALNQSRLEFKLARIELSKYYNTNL

B1: phosphorylated YPD1, YPD1∼P (natural protein, S. cerevisiae, UniProt Q07688 1-167, looked up)
chain: T2 sequence (looked up)
modifications: phosphorylated (32P) by phosphotransfer from GST-SLN1-HK-R1; residue not given
B2: phosphorylated SLN1 response regulator (receiver) domain, SLN1-R1∼P (domain or fragment, S. cerevisiae, UniProt P39928 1084-1220, looked up)
chain: NETSVKILVVEDNHVNQEVIKRMLNLEGIENIELACDGQEAFDKVKELTSKGENYNMIFMDVQMPKVDGLLSTKMIRRDLGYTSPIVALTAFADDSNIKECLESGMNGFLSKPIKRPKLKTILTEFCAAYQGKKNNK
modifications: phosphorylated (32P) by phosphotransfer from phospho-SLN1-HK; residue not printed for this domain

Tests used:
Assay in all cases: rapid-quench phosphotransfer kinetics
[1] = target: T1, SSK1 response regulator (receiver) …
[2] = target: T1, SSK1 response regulator (receiver) …; remark: listed apart in the source
[3] = target: T1, SSK1 response regulator (receiver) …; remark: listed apart in the source
[4] = target: T1, SSK1 response regulator (receiver) …; remark: listed apart in the source
[5] = target: T1, SSK1 response regulator (receiver) …; remark: listed apart in the source
[6] = target: T1, SSK1 response regulator (receiver) …; remark: listed apart in the source
[7] = target: T1, SSK1 response regulator (receiver) …; remark: listed apart in the source
[8] = target: T1, SSK1 response regulator (receiver) …; remark: listed apart in the source
[9] = target: T1, SSK1 response regulator (receiver) …; remark: listed apart in the source
[10] = target: T1, SSK1 response regulator (receiver) …; remark: listed apart in the source
[11] = target: T2, YPD1, histidine-containing …
[12] = target: T2, YPD1, histidine-containing …; remark: listed apart in the source
[13] = target: T2, YPD1, histidine-containing …; remark: listed apart in the source
[14] = target: T2, YPD1, histidine-containing …; remark: listed apart in the source
[15] = target: T2, YPD1, histidine-containing …; remark: listed apart in the source
[16] = target: T2, YPD1, histidine-containing …; remark: listed apart in the source
[17] = target: T2, YPD1, histidine-containing …; remark: listed apart in the source
[18] = target: T2, YPD1, histidine-containing …; remark: listed apart in the source
[19] = target: T2, YPD1, histidine-containing …; remark: listed apart in the source
[20] = target: T2, YPD1, histidine-containing …; remark: listed apart in the source

| Binder | Kd [1] [µM] | Kd [2] [µM] | Kd [3] [µM] | Kd [4] [µM] | Kd [5] [µM] | Kd [6] [µM] | Kd [7] [µM] | Kd [8] [µM] | Kd [9] [µM] | Kd [10] [µM] | Kd [11] [µM] | Kd [12] [µM] | Kd [13] [µM] | Kd [14] [µM] | Kd [15] [µM] | Kd [16] [µM] | Kd [17] [µM] | Kd [18] [µM] | Kd [19] [µM] | Kd [20] [µM] |
| --- | --- | --- | --- | --- | --- | --- | --- | --- | --- | --- | --- | --- | --- | --- | --- | --- | --- | --- | --- | --- |
| B1 | 3 | 2.2 | 1.4 | 2.1 | 11.5 | 4 | 4.4 | 4.3 | 4.3 | 3.8 | – | – | – | – | – | – | – | – | – | – |
| B2 | – | – | – | – | – | – | – | – | – | – | 6.2 | 2.3 | 2.6 | 4.6 | 18 | 10 | 3.2 | 2.7 | 2.3 | 2.8 |
